Blank lines part the entries; values can stand above or below the molecule they belong to.
Tests used:
[1] = biological target: T1, YvcJ (Bacillus subtilis, UniProt O06973); experiment: thermal shift assay (SYPRO Orange) with apparent KD; supported by limited proteolysis with endoproteinase Glu-C; type: binding
T1 construct: 6His-tagged recombinant YvcJ
T1 sequence (O06973 1-295): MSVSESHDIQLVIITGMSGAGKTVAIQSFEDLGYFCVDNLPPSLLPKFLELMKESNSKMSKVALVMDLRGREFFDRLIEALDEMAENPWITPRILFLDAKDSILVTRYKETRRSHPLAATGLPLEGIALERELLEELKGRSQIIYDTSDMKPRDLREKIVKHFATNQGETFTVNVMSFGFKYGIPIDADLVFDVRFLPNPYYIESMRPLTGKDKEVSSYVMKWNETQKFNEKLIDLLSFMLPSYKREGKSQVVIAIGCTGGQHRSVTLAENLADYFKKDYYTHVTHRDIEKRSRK

[2] = biological target: T2, GlmS, glucosamine-6-phosphate synthase from B. subtilis, with a C-terminal 6His-tag (Bacillus subtilis 168, UniProt P0CI73 1-600); experiment: cell-based or functional assay
T2 sequence (looked up): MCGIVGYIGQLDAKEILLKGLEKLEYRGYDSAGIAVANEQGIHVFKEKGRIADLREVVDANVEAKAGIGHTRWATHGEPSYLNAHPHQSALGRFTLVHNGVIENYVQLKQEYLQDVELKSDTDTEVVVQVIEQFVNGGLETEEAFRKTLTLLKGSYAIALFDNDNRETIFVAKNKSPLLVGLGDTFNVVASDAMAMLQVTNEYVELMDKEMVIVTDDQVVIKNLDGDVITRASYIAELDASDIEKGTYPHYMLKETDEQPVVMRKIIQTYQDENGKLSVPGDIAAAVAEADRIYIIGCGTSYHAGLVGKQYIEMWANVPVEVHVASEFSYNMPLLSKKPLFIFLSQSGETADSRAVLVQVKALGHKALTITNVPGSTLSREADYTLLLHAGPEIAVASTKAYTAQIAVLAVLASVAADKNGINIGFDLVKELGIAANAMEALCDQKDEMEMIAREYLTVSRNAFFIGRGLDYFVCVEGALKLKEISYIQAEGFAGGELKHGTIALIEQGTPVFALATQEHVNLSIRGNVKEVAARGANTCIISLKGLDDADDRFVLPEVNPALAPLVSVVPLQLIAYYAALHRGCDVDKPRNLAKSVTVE

[3] = biological target: T3, YvcJ, purified 6His-tagged protein (Bacillus subtilis, UniProt O06973 1-295)
T3 chain: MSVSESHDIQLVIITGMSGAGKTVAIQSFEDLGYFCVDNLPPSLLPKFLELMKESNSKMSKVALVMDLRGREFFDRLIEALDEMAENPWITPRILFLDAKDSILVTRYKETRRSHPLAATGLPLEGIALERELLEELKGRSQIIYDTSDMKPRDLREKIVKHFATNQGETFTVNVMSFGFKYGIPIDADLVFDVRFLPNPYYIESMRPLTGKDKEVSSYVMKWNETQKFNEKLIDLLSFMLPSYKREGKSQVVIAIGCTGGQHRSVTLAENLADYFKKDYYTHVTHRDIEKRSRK

[4] = biological target: T3, YvcJ, purified 6His-tagged protein; experiment: ITC; 1 mM UDP-GlcNAc
[5] = biological target: the molecule itself; experiment: dynamic light scattering; 24 µM YvcJ alone, without or with 0.4 mM UDP-GlcNAc; 25 °C; 50 mM Tris-HCl pH 7.5, 50 mM NaCl, 5% glycerol
[6] = biological target: the molecule itself; experiment: dynamic light scattering; 24 µM YvcJ with 7 µM GlmR (ratio 1:0.3 YvcJ:GlmR) and 0.4 mM UDP-GlcNAc; 25 °C; 50 mM Tris-HCl pH 7.5, 50 mM NaCl, 5% glycerol

Kd [1]: 280 ± 470 µM
Molecule: CC(=O)N[C@H]1[C@@H](OP(=O)(O)OP(=O)(O)OC[C@H]2O[C@@H](n3ccc(=O)[nH]c3=O)[C@H](O)[C@@H]2O)O[C@H](CO)[C@@H](O)[C@@H]1O [UDP-GlcNAc]

GlmS specific activity (GlcN6P produced, enzyme-coupled assay with GNA-1, CoASH at 412 nm, 37 °C); 7.3 µM GlmS with 0 to 32.1 µM GlmR, no UDP-GlcNAc [2]: 16 fold
hydrodynamic size of YvcJ by dynamic light scattering; 24 µM YvcJ titrated with GlmR at a ratio 1:0.3 in the presence of 0.4 mM UDP-GlcNAc [3]: 124 nm
Kd [4]: 9.03 µM
B1: GlmR (formerly YvcK), purified 6His-tagged protein (natural protein)
chain: MGQKPKIAIFGGGTGLSVLLRGLKHKPVDITAIVTVADDGGSSGRLRNELKIPPPGDIRNVLAALSDVEPLVEDLFQHRFNKGNDLTGHSLGNLILAAMTNITGDFFHAVTEMSKVLNVRGKVLPAANASVVLHAEMEDGRVVSGESTIPEYGQRIKRVFLTPEQIDPLPETIDVIREADLIIIGPGSLYTSILPNLLVPKIGEEVIKAPAKKVYICNVMTQPGETLHYTAADHVKALNQHMGCGFIDTILVNSEDIPDEIKRKYEMESARPVDFDIEELKAMGLEVIRDQIVTYKNDVIRHDTHKVASLLVDLLKE

B2: YvcJ, purified 6His-tagged protein (natural protein, Bacillus subtilis, UniProt O06973 1-295, looked up)
chain: MSVSESHDIQLVIITGMSGAGKTVAIQSFEDLGYFCVDNLPPSLLPKFLELMKESNSKMSKVALVMDLRGREFFDRLIEALDEMAENPWITPRILFLDAKDSILVTRYKETRRSHPLAATGLPLEGIALERELLEELKGRSQIIYDTSDMKPRDLREKIVKHFATNQGETFTVNVMSFGFKYGIPIDADLVFDVRFLPNPYYIESMRPLTGKDKEVSSYVMKWNETQKFNEKLIDLLSFMLPSYKREGKSQVVIAIGCTGGQHRSVTLAENLADYFKKDYYTHVTHRDIEKRSRK
notes: Cloned BamHI/XhoI in pET21: the His tag is probably C-terminal and vector residues may precede Met1 (surmised); also called RapZ homologue; source: purified (Ni2+-NTA resin, PD-10 column) as previously described
stoichiometry N [5]: ~15 molecules
stoichiometry N [6]: 5 molecules

— article PMC7525490, “Uridine diphosphate N-acetylglucosamine orchestrates the interaction of GlmR with either YvcJ or GlmS in Bacillus subtilis” (Scientific Reports, 2020)
